The text below walks through data of PMC12175907 (Science Advances, 2025).

The test system of series [1] is shrews. The series can be described thus: emesis, semaglutide, GIP-085 and combo, shrews. Type of series: in vivo, Suncus murinus. To be noted: semaglutide 500 nmol/kg ip; 120 min; n = 10. From the text: (§1) Adult male shrews (S. murinus) weighing ~50 to 80 g (n = 84 total) were bred and maintained in the De Jonghe Lab (University of Pennsylvania). These animals were offspring from a colony previously maintained at the University of Pittsburgh Cancer Institute (C. Horn); a Taiwanese strain was derived from stock originally supplied by the Chinese University of Hong Kong. Shrews were singly housed in plastic cages (37.3 cm by 23.4 cm by 14 cm, Innovive) under a 12-hour/12-hour light/dark cycle in a temperature-controlled and humidity-controlled environment. Animal were fed ad libitum with a mixture of feline (75%, Laboratory Feline Diet 5003, Lab Diet) and mink food (25%, High Density Ferret Diet 5LI4, Lab Diet) and had ad libitum access to tap water except where noted.
We then evaluated the emetogenic actions of semaglutide (500 nmol/kg), GIP-085 (300 nmol/kg), GIP-085/semaglutide, or vehicle in a different cohort of shrews (n = 10). The animals were habituated to the experimental conditions as described above, injected intraperitoneally with semaglutide ([…]), GIP-085 (300 nmol/kg), GIP-085/semaglutide, or vehicle and then video-recorded (Vixia HF-R62, Canon) for 120 min. After 120 min, the animals were returned to their cages. Treatments were separated by 7 days. Emesis parameters were quantified as described above.

The next series relates to DIO GLP-1R KO mice. The series can be described thus: chronic treatment, food intake and body weight, DIO GLP-1R KO mice. The class given is in vivo, mouse. The following applies: GIP-085 300 nmol/kg, semaglutide 3 nmol/kg or combo, sc daily, 16 days; n = 6 per group. From the text:
DIO adult male C57BL/6 mice (Taconic) C57BL/6 (n = 23, weighing ~43 g at arrival), GLP-1R KO (germline knockout line: 11549, n = 24, weighing ~38 g at arrival), and GIPR KO mice (germline knockout line: 2886, n = 24, weighing ~35 g at arrival) were used. Upon arrival, mice were individually housed and continued to be fed ad libitum on high-fat/high-sugar diet (60% fat diet, 12492, Research Diets).
GIPFA-085 (GIP-085), tirzepatide, and GLP-140 were designed and produced by Eli Lilly and Company. GIP-085, GLP-140, and semaglutide (Cayman Chemical) were dissolved in 40 mM tris-HCl buffer (pH 8) and 0.02% Tween 80. For the study in mice, all drugs were injected subcutaneously at a volume of 5 ml/kg of body weight. In rats, all drugs were injected intraperitoneally, at a volume of 1 ml/kg of body weight, except when noted. In shrews, all drugs were injected intraperitoneally at a volume of 10 ml/kg of body weight.
C57BL/6 wild-type (n = 23), GLP-1R KO (n = 24), and GIPR KO mice (n = 24) received daily subcutaneous administration of GIP-085 (300 nmol/kg), semaglutide (3 nmol/kg), GIP-085/semaglutide combo, or vehicle for 16 days. Food intake and body weight were manually measured daily. […] Body composition of mice was determined using quantitative nuclear magnetic resonance analysis (ECHO MRI, 3-1 Composition Analyzer; Echo Medical Systems). […]

The next series deals with DIO GIPR KO mice. The series can be described thus: body composition (ECHO MRI), DIO GIPR KO mice. The class given is in vivo, mouse. To be noted: 16 days daily sc, GIP-085 300 nmol/kg, semaglutide 3 nmol/kg, mean ± SEM, n=6 per group. Here is the method:
C57BL/6 wild-type (n = 23), GLP-1R KO (n = 24), and GIPR KO mice (n = 24) received daily subcutaneous administration of GIP-085 (300 nmol/kg), semaglutide (3 nmol/kg), GIP-085/semaglutide combo, or vehicle for 16 days. Food intake and body weight were manually measured daily. The average body weight at the start of the experiment was 43.7 ± 0.4 g for the wild-type group, 39.0 ± 0.6 g for the GLP-1R KO group, and 36.5 ± 0.4 g for the GIPR KO group. Body composition of mice was determined using quantitative nuclear magnetic resonance analysis (ECHO MRI, 3-1 Composition Analyzer; Echo Medical Systems). At the end of the experiment, the animals were euthanized by CO2.

Series [2] relates to adults with overweight or obesity. Also noted: method as in 2 sources, ref 4 = [4]; PMID 33567185; doi:10.1056/NEJMoa2032183; 4 J. P. H. Wilding , R. L. Batterham , S. Calanna , M. Davies , L. F. Van Gaal , I. Lingvay , B. M. McGowan , J. Rosenstock , M. T. D. Tran , T. A. Wadden , S. Wharton , K. Yokote , N. Zeuthen , R. F. ||| ref 6 = [6]; PMID 34514682; doi:10.1111/dom.14551; 6 S. Wharton , S. Calanna , M. Davies , D. Dicker , B. Goldman , I. Lingvay , O. Mosenzon , D. M. Rubino , M. Thomsen , T. A. Wadden , S. D. Pedersen , Gastrointestinal tolerability of once-weekly sem. To be noted: cited from earlier work.

The subject of series [3] is shrews. The series can be described thus: food intake and body weight, semaglutide dose-response, shrews. To be noted: 10, 50, 100 and 500 nmol/kg ip, n = 8 per group (legend). The class given is in vivo, Suncus murinus.
Source text: as §1
We evaluated the effects on food intake and body weight of different doses of semaglutide. Food was removed 2 hours prior to dark onset. Shortly before dark onset, shrews (n = 9, ~59 ± 2 g) received intraperitoneal injection of semaglutide (10, 50, 100, and 500 nmol/kg) or vehicle. Shrews had ad libitum access to powdered food through a circular (3 cm in diameter) hole in the cage. Food intake was evaluated using our custom-made “feedometers,” consisting of a standard plexiglass rodent housing cage (29 cm by 19 cm by 12.7 cm) with mounted food hoppers resting on a plexiglass cup (to account for spillage). Food intake was manually measured at 6, 24, 48, and 72 hours postinjection. Body weight was taken at 0, 24, 48, and 72 hours. Treatments occurred in a within-subject, counterbalanced design and were 7 days apart.

Series [4] has as its system shrews. The series can be described thus: emesis, semaglutide dose-response, shrews. Type of series: in vivo, Suncus murinus. To be noted: for animals exhibiting emesis / emesis, dose dependence: 120 min; for animals exhibiting emesis: n = 9; for latency to first emetic episode: average of shrews that exhibited emesis, ± SEM; for emesis, dose dependence: 10, 50, 100 and 500 nmol/kg ip.
Source text: as §1
To assess the emetogenic effects of semaglutide treatment, shrews (n = 9) were habituated to intraperitoneal injections and to clear plastic observation chambers (23.5 cm by 15.25 cm by 17.8 cm) for two consecutive days prior to experimentation. The animals were injected intraperitoneally with semaglutide (10, 50, 100, and 500 nmol/kg) or vehicle and then video recorded (Vixia HF-R62, Canon) for 120 min. After 120 min, the animals were returned to their cages. Treatment rounds were conducted within-subject and separated by 7 days. Analysis of emetic episodes was measured by a trained observer blinded to treatment groups. Emetic episodes were characterized by strong rhythmic abdominal contractions associated with either oral expulsion from the GI tract (i.e., vomiting) or without the passage of materials (i.e., retching). Latency to the first emetic episode, the total number of emetic episodes, and the number of emetic episodes per minute were quantified.

Turning to semaglutide, the “shrews that experienced emesis” value in the series with shrews [1] worked out at 60%. Besides, in the series on DIO GLP-1R KO mice, the “anorectic effects / food intake” value was “absent” and the body weight entry is on record as “absent”. In addition, the “total fat mass at the end of the experiment” value with DIO GIPR KO mice (Veh: 14.2±0.6g) worked out at 8.1 ± 0.6 g. Moreover, the “total lean mass at the end of the experiment” value in the series with DIO GIPR KO mice (Veh: 22.3±0.5g) is 20.9 ± 0.3 g. For the same substance, in series [2] (STEP 1), the patients reporting nausea is recorded as 44.2% and the patients reporting vomiting is reported as 24.8%. In addition, the weight loss entry in series [2] (people with overweight/obesity without type 2 diabetes) was “double-digit weight loss”. In series [2] (pooled STEP 1-3 trials), the “participants with dose reduction or temporary treatment interruption (GI side effects)” value is ~ 12.5% and the “permanent treatment discontinuation (GI side effects)” value is ~ 4.3%. Moreover, in the series on shrews [3], the body weight loss entry is reported as “significant body weight loss up to 72 hours after the highest dose tested” and the “food intake (anorexia)” value was “causes anorexia in a dose-dependent manner”. In addition, the body weight loss result in the series with shrews [3] (listed as Semaglutide) is reported as “dose-dependently induces body weight loss”. Besides, in the series on shrews [4] (100 nmol/kg ip), the animals exhibiting emesis entry is “Twenty-two” and the “latency to first emetic episode” value amounted to 63 ± 14 min. Moreover, in the series on shrews [4] (500 nmol/kg ip), the animals exhibiting emesis stood at 67% and the “latency to first emetic episode” value is 58 ± 6 min. Also, in the series on shrews [4], the “emesis, dose dependence” value was “dose-dependently induced emesis”. For the same substance, the “emesis, dose dependence” value in the series on shrews [4] (listed as Semaglutide) is “causes emesis in a dose-related manner”.
